Test results from the DeepSol protein solubility set.

Test: soluble on expression in E. coli; label from the status in PepcDB or PDB records

Sequence | soluble on expression in E. coli
MGSDKIHHHHHHDETDPILTQKNWDGTATYFQSSDEHGFSMYYKPQVGFVGDPMPFYDPVAKDFKVMYLQDYRPNPEATYHPIFGVATKDGATYESLGELISCGGRDEQDAAIGTGGTIYNPADKLYYTFYTGNKFKPSSDQNAQVVMVATSPDFKTWTKNRTFYLKGDTYGYDKNDFRDPFLFQTEDGVYHMLIATRKNGKGHIAEFTSADLKEWESAGTFMTMMWDRFYECPDVFKMGDWWYLIYSEQASFMRKVQYFKGRTLEDLKATTANDAGIWPDNREGMLDSRAFYAGKTASDGTNRYIWGWCPTRAGNDNGNVGDVEPEWAGNLVAQRLIQHEDGTLTLGVPDAIDRKYTSAQEVKVMAKDGNMIESGKTYTLGEGASVIFNRLKVHNKISFTVKTASNTDRFGISFVRGTDSASWYSIHVNADEGKANFEKDGDDAKYLFDNKFNIPADNEYRVTIYSDQSVCVTYINDQLSFTNRIYQMQKNPWSLCCYKGEITVSDVQVSTY | not soluble
MGSDKIHHHHHHDKMNKNTGALQFDSIQVNETAHLFNDTAKPACNIIINFAYPVKSSDDMLKDSLNAYFISVCFGDKYIGEKPEAVVKQYAKNYIDEYRHDQEPMYAEDEKNKESDAVVGAWYSYYKSIESHVQLYEKDLLVYRVDYNEYTGGAHGMYMSTFLNMDLTLMRPLRLDDIFVGDFQEALTDLIWNQLMADNKVTTHEALEDMGYASTGDIAPTENFYLSKEGITFYYNIYDITPYSMGPVKVTIPYSMMEHLLGSNPILGDLKD | not soluble
MGSDKIHHHHHHDLDENVYDKLPTDEFGTTEKQINAIMAPAYQSLKNMLAYDGPWGAADMTADILIAPTRVGGDWWDGGQYMEQCMHSWKPNSYSVENCWTYCTEGLTTVNSVYNIIEKSEAMSDELKLQYLSELRGLRAFWYYVIVDIFGNAPLVTDFEDTSLPSITSRADLYKYVVKELTEIIPNLRSDVSDASYGKFTQGAARMVLAKMYLNAEEWIGEPNWKGVVEQCDEIMKLEYIIEPNWKTNFEVHNEVSREIIFPICYKASDAWGNSIHLWTLHYLDPDVLGFTGGMWNGINAQPDFVRTFDTEDPRYEGSFLIGPMIDPSTGEILKTTLGHDLIHTIDLNVVPGTEKTDADGNLTPWGEVHQEDGARINKWVYEKGMQNTNMENDIAIFRLADVYLMKAEALVRMGGDLGEATRLVNAIRERAYGNSDHNYTSVTLDDIYNERGYELAFEFVRRQDMIRFGTYLKPRYMKPKQTPEYRKIFPIPFKAWQKNNNLVQNPGYPAF | not soluble
MGSDKIHHHHHHDNAGRVVEITSAPERVVSLSPAATRFLVFLGLEDKIVGVTDYDSYEAEKVGAMVPVNIEKVVSLNPDLVLMFGGFQLPEVPKLEKAGLKVLVVNPNSLNDIIRDVVLLGTIFDRRDLALEKSEKLREKMLEIGKKTYNVPPSKRPKVLYLISSPGPDVKEIWTCGMGSYLNEIISLAGGVNIASGIAGPNGWPQLSIEYVVSQNPDVIIVGVYIPGTENEEIKKILNFEPFKEINAVKNKRVFAVDGNVASQPSPDVFELLDLFYEFFYGGKGE | not soluble
MGSDKIHHHHHHDYEAVNTNPYGVSDGELGPLKYGARFMNMQQRVIPIGSPSLTTGPGNDLQNTDLISSGNYIGYFGNNNNWGFNNEANWNFTDSRMNYAYQNFYSQIFLPWNEIYEIAKDSDSPSEQAILEIANIVRNIAWLRATDVFGPIAYNSAGDGSIAPKFDSQEVVYRSMLADLSKSVELLNTISYSVMAQYDLIYNGNVQNWVKLANSLMLRIAVRVHFIDETLAKEYITKALDPKNGGVIEDISSEAKIKSSDKMPLLNSMLASVNEYNETRMGATIWGYLDGYKDPRLSAYFTEGTYGSGSWAQTGYFPVAPTNSKSKSETSYSAKFASRPKVDSNSPLYWFRASETYFLKAEAALYNLIGGDPKTFYEQGINISFQEQGVSGVATYLSGTGKPTGLTGSNYKYGTYNHDLSIGNTSPKWDDYTGNLSKQEEQLQKIITQKYLALYPNAVEAWTEYRRTGFPYLMKPMDEAAPGRIGASIEDCRVPERFRFAPTAYNSNPNMAEIPTLLGGGDIGATKLWWVRSNRPKQPNQ | not soluble
MGSDKIHHHHHHELGMQDNLNDSKILLSSDEYISIAYDNPGIITSEEAKQLVLDFNPTGLQTRNNNVKIMAISTYNVSSSSGLKTRVGSTNLTTIPVYKIEFLSDEGKGVAYVPADERFAKIMAYLPKTDLKDSVKYVDSKSMLYLSELSLLEDAKYYEKVKSELRAKTLAKIAKTLNVKAVRYDEIQDIIIVKDEILSRSEPTFPIGNPIGFAGLYCSSTEWNQDAPYNDLLQKENCDLYDTGSPTYEAVPAGCAVISIAQIMASLEPDLTVDGLKIDWNILKAQKQIIAPSSWQTPSSETTREMVAKLIKYIYIATNTQPVRNSSGYVTGSGTYSSDTSSFFYRFFSTSGLKNGWDGNAAFQSLQLAKLVWIAATSNRGGSHAFILDGFAYWRPQTRYLVKNFDFYFHANMGWGGYYDGFYLVNKDLSITFDTSNGSYDRNFSMIYNIINK | not soluble
MGSDKIHHHHHHENLYFQGMKTIVIEDKQRIESIILQADACFVGITDLEGNPYVVPMNFGYENDTLYLHSGPEGGKIEMLQRNNNVCITFSLGHKLVYQHKQVACSYSMRSESAMCRGKVEFIEDMEEKRHALDIIMRHYTKDQFSYSDPAVRNVKVWKVPVDQMTGKVFGLRADEKP | soluble
MGSDKIHHHHHHEPTKLTPENYFNTPAEANSFLTGIYAILSQPTFYGGDYMYLVAGDDLSHYGGSGRGPASTGLICNNATTSDNAVTAFWYALYSGINRANMFLENIDKVNGFDAGVKEQYIAEARFLRAFYYFNLVECWGDVPFKTVSTQSVTNLNIPRTDKQEIYDFIISEMADAAETGLKSASDLAYKPGRISQSTAWGILARVYLFRAGEHYREGRNATQAEKKDYFERASFYAQKVMTAGHKLAANYWDPFIDMCSDKYNTTANESIWEAEFAGNNTSDTQAEGRIGNIIGLAGPDLSSKSDVTGAKDPGYGYAFIYSTPKLYNLYVNNGDTKRFNWSIAPFEYKEAGGKNTGVTHREFEQGKLAEVMSQYGQQRGTYQYADDTEKTTATKNFSRMCGKYRREYEADKKDKNYTSINFPILRYADVLLMIAEAENEANNGPTTLAYQCMKEVRERAGLNELPDMTQEEFRQTVKDERAMELCFEYTRRFDLIRWGEYVKNMRALVTEAQSGNNWTQGPTNVYTYFNISSTYNYFPIPDAEMSVNKDITQNNPGW | not soluble
MGSDKIHHHHHHETNNLKTKEDMYKYFGTSKSMLTHVYSYMPQGYQLFATSGGIFTEDRYSMRDCASDDGEFGAYADNIQNTNNGNWSPIKTYDDSWTLYRGIRAANSFIAEIAQVDFTRYEHDGQYTNWMKQLKYFPYEARVLRAHYFFELARRYGDIAMPLEVLTEEEANTIGKTPFSEVISFIVSECDDAANNLPDSYVNEPGAEIGRVTKGFAMAVKSKALLYAASKLHNPSMDTELWKKSAKAAIDIINTGLYSLDPQESANNLDSKEVVLMRINGDDSDFEMFNLPLRMTAGTRTSSLIPYSNYPSQNLVDAFETVNGYKVTLENTGWVCEDPAFDPQSPYENRDKRFYRAILANGMSFKDYTIETFKGGADDGIVSQGGSPTGYFLRKYIQEATSFEPGKEAVSKHHWVIYRYAETLLTYAESMVNAFNDVNYTDETYKYSALWAINEVRKNADMPLIPSMGKDEFMERLYNEWRVEFAFEDHRFWDVRRWKIADTTQRELYGVKIEKQADGTFNFYKNLYETRNWRDCMYLYPIPQSELYKNTNLNPQNTGW | not soluble
MGSDKIHHHHHHFKSKGKKSKRKKRNYFDSEDDDDESESETKYGGKFGKKKLEGLQKRLRETESAMSKILEQLESVQAGANPVDLDAADKRSEQLEEDPSVKEAVGLTETNEQYIKDLEVALKEFQSLSKEYDKAKMKKLKRKDSSSDEDEEDEEENSSELSEIEEEEEEVKPVKKSKSSSQSVGKRKNRPKSTSEEEDEGEEESRKVAEDAEEEGIDIDSEIREHAEKEKKDKNVRRRRPKKT | not soluble
MGSDKIHHHHHHGCNQSSKSDTKKEVTSKVGTYASVDCSTFTKSKDLPKGASCGYLTVPEKHAIKGQSASKKTMEIAVLKIPATKTEAKADPVVYLQGGPGYSAIDSLEDFTQSKAKYLWNDRDFYLVDQRGTGHAKPAYKCTEFNTVKGSIEQVKACKARLKAKGVDFSAYQSVQSAHDFIMLRKALKLDSWNLYGASYGTRLAETIIREDSQGVRSVILDGVFPIEVNGLSDTPWATYATLDRIVANCDASINCASEILKPMIESIIERLQNQGEEQAAIRFVNYIASLAGDARVVPLILAIDKDLNIIINEKDNEEAEGYFAPMALSVVCAEEYAFLNQTALEGRNDKNWSTTTTLTVNKMFHEGFDIDSCKAWDVAAADSIETQAVTSNLPILVINGGNDHQTPPAWGELVVKNMPNAQLFTNPQGGHVQLTSQNPYRNCIDGITMAFLAAPDQKIKTQCTSMIPVFKYN | not soluble
MGSDKIHHHHHHGEDEKKPEIVVDPAEKTIEYYIAGKVTEGTTALSGVEVKAGEVTATTDAEGAYKLTVDSKKMYTVTFSKEGYMSIDNATATIADNAANRSMVSLSVKLSKKAPEKEVKADAEEEVVVTDKGDSNISQAEAAVIIPPKAIETTTTVSVTPYEEPAAVTTTVTPGNNVETPVAIANIEVETAKEVTLAKPVTLAIINKASEHTTFENVEVYNQKTTTRAGENWNKVADAIYDSETNSYKFTLPAGASLSGKYSMRVKSSKTTGKERIGETNKEEKKSNEGNMTAIPEYKINFEATAGWEYTVSPEKALMNAGVDAADAQGMATTINSAIEAQEGTTGTYKVAHELIAGISGNHILYYLNQAKYCEKTYTFKISGGRTVTITLKFYTGMQITYTNVEASQHSGGKI | not soluble
MGSDKIHHHHHHGEGVVVATGKAQAAASTVAGNAYGRLQFSPCTLSSGSAAGNIEAQCAQLQVPENPAAPNGRKLALKIAWLESDAGASHAPDPVFFIAGGPGQSATQVAAIVDMGLREVRKHRDIFLVDQRGTGGSHPLECRDAGGTPLVLENDSAATAEQLSAYAARCAAGLRNDADPRYFTTSEAIGDLDAVREALGAQQINLIGGSYGTRVAQQYAARYPQHTRTVVLDGVAPNDLVIGGEFARTFEDAIALQTTQCKAQPACAKRFPVDTRTQLRQVVERLRQAPAPVDYRDPRTGELHHQEVNADTVAGLAFGFSYAPETASLLPLVLDEAAAGRYASLMALAQMSGSDMADQMNRPMQWSVLCSEDAGRYRAPAAQDDTLLGAQVAEMFFAACKTWPSKPTPAAAFAPFRSTLPVLLLSGQLDPVTPPRYAARVLQGLPNGRHLIAPGQSHGVFRLGCMPKVLGQFLQTADAKGLDARCVDSLTDVPAFTSFNGWEP | not soluble
MGSDKIHHHHHHILPNDESQKLIVNALINANKTNNAIFLALSGYHEPQVVKNGIIHLYINNVLSETISECTYRPNNDSPLDYQNYFYQISSRFKTGDQVRIEVETKDGKYKANAEATVYEPIEIIKADTIESNHSLSETSESLWIYQATKWKIKLQTPTTNHSQYYRVNIKQTYTYRLTNRKTLQDSTAISTQWECSGYYDTALMDGKPGTPNNSDPIINFIPTINNYYNVFNDAYFTNNQYTMTLDSWYSFLLDNKLYKIKKITGKAIIQYYAISPAEYQYLRAANAYADHDSSNLLETPVIFPNNIKGGIGIFAIENPTETSIPLKSIEDY | not soluble
